16 molecules from patent US20260258131A1 (ADAGENE PTE, published 2026) can be followed below.

The target of assay [1] is T1, Recombinant human CTLA4-hisFc (human, UniProt P16410 36-161, limits assumed).
T1 construct: Coated on the ELISA plate; the whole UniProt entry is named; also called recombinant human CLTA4-hisFc; its antigen; not shown: his tag and Fc
T1 sequence (looked up): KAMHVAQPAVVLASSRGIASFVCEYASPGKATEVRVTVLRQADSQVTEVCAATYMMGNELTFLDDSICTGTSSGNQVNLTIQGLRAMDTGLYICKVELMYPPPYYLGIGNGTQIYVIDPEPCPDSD
In words: ELISA, coated CTLA4-hisFc. The protocol:
(§1) Recombinant human CTLA4-hisFc was diluted to 1 μg/mL in PBS and coated on a Maxisorp plate at 4° C. overnight. Plates were blocked with PBS supplemented with 3% non-fat milk at 37° C. for 1 hour. After washing, 100 µL of 3-fold serial dilutions of antibodies were added to each well. After incubation at 37° C. for 1 hour, plates were washed four times, and 100 μL HRP conjugated anti-human IgG (Fab specific) (1:6000 dilution) was added to each well. Plates were incubated at 37° C. for 1 hour, washed four times, and then 50 μL TMB substrate solution was added to each well, and the plate was incubated at room temperature. Absorbance at 450 nm was measured after the reactions were stopped with 50 μL H2SO4 per well. The EC50 was evaluated by fitting the ELISA data using the sigmoidal (four-parameter logistic equation) model of GraphPad Prism 6 software. Experiments for some activatable antibodies were performed twice or more, leading to two or more calculated masking efficiencies being obtained for each of these activatable antibodies.

Assay [2] addresses T2, human CTLA4 expressed on cells (human, UniProt P16410 36-223).
T2 sequence (looked up): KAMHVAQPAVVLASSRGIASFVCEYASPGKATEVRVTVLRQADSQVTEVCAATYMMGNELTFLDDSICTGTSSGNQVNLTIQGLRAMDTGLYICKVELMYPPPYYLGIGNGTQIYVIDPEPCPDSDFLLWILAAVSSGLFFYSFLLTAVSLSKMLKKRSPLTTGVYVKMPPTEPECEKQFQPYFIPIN
Nature of the assay: cell-based or functional assay.

Assay [3] has as its target T3, biotinylated CTLA-4 protein (UniProt P16410 36-161, limits assumed, biotinylated (sites not given)).
T3 construct: also called receptor CTLA-4
T3 sequence (looked up): T1 sequence (looked up)
Nature of the assay: competition ELISA, biotinylated CTLA-4 on coated CD86 (competitor CD86). An excerpt:
(§2) Relative CTLA-4 and its ligand binding was monitored by reading the absorbance at 450 nm wavelength in the micro-plate reader.

Assay [4] deals with T1, Recombinant human CTLA4-hisFc. Nature of the assay: ELISA, coated CTLA4-hisFc, after MMP-9 cleavage. As to the method: as §1, with “Plates” for “Recombinant human CTLA4-hisFc was diluted to 1 μg/mL in PBS and coated on a Maxisorp plate at 4° C. overnight. Plates”
The purified activatable antibodies were treated with the proteases which recognize the cleavage sequences, and were then tested to determine whether removal of the masking peptide restored their activity. […] The reactions were carried out at 37° C. for 24 hours. […] The masking efficiency was then measured by ELISA as described above.

Assay [5] deals with recombinant mouse CTLA-4 protein (mouse, UniProt P09793 36-161, limits assumed). In words: SPR (Biacore), antibody captured by anti-human IgG Fc, CTLA-4 in flow. As to the method: (§3) Serial dilutions of recombinant CTLA-4 proteins of different species origins were sequentially loaded and flowed through the chip to measure the kinetics of CTLA-4 antigen association (kₐ), followed by a buffer flow-through phase for dissociation kinetics (kd) measurement. The binding affinity (KD) is then calculated with […].
In general terms: In SPR one partner is held on a chip, and binding of the other changes the refractive index at the surface.

The target of assay [6] is T4, recombinant rat CTLA-4 protein (rat, UniProt Q62859 36-161).
T4 sequence: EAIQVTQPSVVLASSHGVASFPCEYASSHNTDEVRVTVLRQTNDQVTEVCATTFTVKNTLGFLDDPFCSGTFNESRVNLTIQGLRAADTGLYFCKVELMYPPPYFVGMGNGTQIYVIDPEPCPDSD
Described as above. The protocol:
as §3

The target of assay [7] is T3, biotinylated CTLA-4 protein. In words: competition ELISA, biotinylated CTLA-4 on coated CD80 (competitor CD80).
Source text: as §2
A general note: An ELISA detects its analyte on a solid surface through an enzyme-linked reagent.

Substitutions are numbered along the chain they refer to. In names and notes the source's numbering stands. Several values for one entry are separate records, joined by “and”; a condition that tells them apart may be missing. Equal entries are not always repeated.

B1: TY24149 (antibody, human IgG1, kappa)
heavy: not shown
light: EVGSYPPCVGFYPYCKTSGRSAGGGGTPLGLAGSGGSDIQLTQSPSSLSASVGDRVTITCRASQSVRGRFLAWYQQKPGKAPKLLIYDASNRATGIPSRFSGSGSGTDFTLTISSLQPEDFATYYCQQSSSWPPTFGQGTKVEIKRTVAAPSVFIFPPSDEQLKSGTASVVCLLNNFYPREAKVQWKVDNALQSGNSQESVTEQDSKDSTYSLSSTLTLSKADYEKHKVYACEVTHQGLSSPVTKSFNRGEC
On to B1, for which, in assay [1], the EC50 – broadly, the concentration at which the effect is half-maximal – was 123 nM and 122 nM; the “Masking efficiency (EC50 / EC50 of TY21580)” value turned out to be 356 fold.

B2: TY24155 (antibody, human IgG1, kappa)
heavy: not shown
light: B1 light with P6S, P7S, V9K, G10A, F11P, T17G
For the molecule B2, in assay [1], the EC50 is 438 nM (2×) and 210 nM (2×).

B3: TY24461 (antibody, human IgG1, kappa)
heavy: not shown
light: EVGSYSSCKAPYPYCKGGGGPLGLAGGSDIQLTQSPSSLSASVGDRVTITCRASQSVRGRFLAWYQQKPGKAPKLLIYDASNRATGIPSRFSGSGSGTDFTLTISSLQPEDFATYYCQQSSSWPPTFGQGTKVEIKRTVAAPSVFIFPPSDEQLKSGTASVVCLLNNFYPREAKVQWKVDNALQSGNSQESVTEQDSKDSTYSLSSTLTLSKADYEKHKVYACEVTHQGLSSPVTKSFNRGEC
As to B3, the EC50 in assay [1] came to 310 nM.

B4: TY24460 (antibody, human IgG1, kappa)
heavy: not shown
light: EVGSYSSCKAPYPYCKGSGGGPLGLAGGSDIQLTQSPSSLSASVGDRVTITCRASQSVRGRFLAWYQQKPGKAPKLLIYDASNRATGIPSRFSGSGSGTDFTLTISSLQPEDFATYYCQQSSSWPPTFGQGTKVEIKRTVAAPSVFIFPPSDEQLKSGTASVVCLLNNFYPREAKVQWKVDNALQSGNSQESVTEQDSKDSTYSLSSTLTLSKADYEKHKVYACEVTHQGLSSPVTKSFNRGEC
In the case of B4, the EC50 in assay [1] is 339 nM.

B5: TY24459 (antibody, human IgG1, kappa)
heavy: not shown
light: B4 light with G20R
As for B5, in assay [1], the EC50 was 209 nM.

B6: TY24465 (antibody, human IgG1, kappa)
heavy: not shown
light: EVGSYTLCEPFATSVCRPGGGPLGLAGGSDIQLTQSPSSLSASVGDRVTITCRASQSVRGRFLAWYQQKPGKAPKLLIYDASNRATGIPSRFSGSGSGTDFTLTISSLQPEDFATYYCQQSSSWPPTFGQGTKVEIKRTVAAPSVFIFPPSDEQLKSGTASVVCLLNNFYPREAKVQWKVDNALQSGNSQESVTEQDSKDSTYSLSSTLTLSKADYEKHKVYACEVTHQGLSSPVTKSFNRGEC
B6: the EC50 in assay [1] is 2.33 µM (2×) and 1.2 µM (2×).

B7: TY24851 (antibody, IgG1, V domains shown)
VH: EVQLVESGGGLVQPGGSLRLSCAASGYSISSGYHWSWIRQAPGKGLEWLARIDWDDDKYYSTSLKSRLTISRDNSKNTLYLQLNSLRAEDTAVYYCARSYVYFDYWGQGTLVTVSS
VL: ETLCEPFATSVCRPGGGGSGGSGGGSDIQLTQSPSSLSASVGDRVTITCRASQSVRGRFLAWYQQKPGKAPKLLIYDASNRATGIPSRFSGSGSGTDFTLTISSLQPEDFATYYCQQSSSWPPTFGQGTKVEIKR
notes: also called non-cleavable antibody TY24851
Regarding B7, in assay [1], the EC50 worked out at 25.8 nM.

B8: TY24841 (antibody, V domains shown)
VH: B7 VH
VL: B7 VL
For B8, the EC50 in assay [1] turned out to be 34.9 nM.

B9: TY24040 (antibody, human IgG1, kappa)
heavy: not shown
light: DIQLTQSPSSLSASVGDRVTITCRASQSVRGRFLAWYQQKPGKAPKLLIYDASNRATGIPSRFSGSGSGTDFTLTISSLQPEDFATYYCQQSSSWPPTFGQGTKVEIKRTVAAPSVFIFPPSDEQLKSGTASVVCLLNNFYPREAKVQWKVDNALQSGNSQESVTEQDSKDSTYSLSSTLTLSKADYEKHKVYACEVTHQGLSSPVTKSFNRGEC
Consider B9, for which, in assay [2], the “ADCP reporter activity (luciferase), EC50” value is 2.04 nM.

B10: TY24652-MMP9 (antibody, IgG1)
heavy: not shown
light: B9 light
notes: TY24652 after 24 h with MMP-9; IgG1 Fc with S239D/I332E
B10: the IC50 (usually the concentration that inhibits the measured activity by half) came to 17.5 nM in assay [3] and 280 nM in assay [7]. In assay [4], the EC50 amounted to 0.313 nM. Further, the Kd (as a rule, a measure of binding affinity in units of concentration) in assay [5] was determined as 0.63 nM; in assay [6], 0.69 nM.

B11: TY24649-MMP9 (antibody, human IgG1)
heavy: not shown
light: B9 light
notes: TY24649 after 24 h with MMP-9; Wild-type human IgG1 Fc; also called TY24649 treated with recombinant human MMP-9
Consider B11, for which the EC50 in assay [4] amounted to 0.286 nM.

B12: TY24148 (antibody, human IgG1, kappa)
heavy: not shown
light: EVGSYVLCAKFPFCITSGRSAGGGGTPLGLAGSGGSDIQLTQSPSSLSASVGDRVTITCRASQSVRGRFLAWYQQKPGKAPKLLIYDASNRATGIPSRFSGSGSGTDFTLTISSLQPEDFATYYCQQSSSWPPTFGQGTKVEIKRTVAAPSVFIFPPSDEQLKSGTASVVCLLNNFYPREAKVQWKVDNALQSGNSQESVTEQDSKDSTYSLSSTLTLSKADYEKHKVYACEVTHQGLSSPVTKSFNRGEC
Turning to B12, in assay [1], the EC50 was determined as 150 nM and the “Masking efficiency (EC50 / EC50 of TY21580)” value was determined as 436 fold.

B13: TY24466 (antibody, human IgG1, kappa)
heavy: not shown
light: ETLCEPFATSVCRPSGGGPLGLAGGSDIQLTQSPSSLSASVGDRVTITCRASQSVRGRFLAWYQQKPGKAPKLLIYDASNRATGIPSRFSGSGSGTDFTLTISSLQPEDFATYYCQQSSSWPPTFGQGTKVEIKRTVAAPSVFIFPPSDEQLKSGTASVVCLLNNFYPREAKVQWKVDNALQSGNSQESVTEQDSKDSTYSLSSTLTLSKADYEKHKVYACEVTHQGLSSPVTKSFNRGEC
As to B13, the EC50 in assay [1] was 3.17 µM (2×) and 2.23 µM (2×).

B14: TY24462 (antibody, human IgG1, kappa)
heavy: not shown
light: ESSCKAPYPYCKGSGGGPLGLAGGSDIQLTQSPSSLSASVGDRVTITCRASQSVRGRFLAWYQQKPGKAPKLLIYDASNRATGIPSRFSGSGSGTDFTLTISSLQPEDFATYYCQQSSSWPPTFGQGTKVEIKRTVAAPSVFIFPPSDEQLKSGTASVVCLLNNFYPREAKVQWKVDNALQSGNSQESVTEQDSKDSTYSLSSTLTLSKADYEKHKVYACEVTHQGLSSPVTKSFNRGEC
For B14, the EC50 in assay [1] stood at 314 nM.

B15: TY24463 (antibody, human IgG1, kappa)
heavy: not shown
light: EVGSYTLCEPFATSVCRPSGRGPLGLAGGSDIQLTQSPSSLSASVGDRVTITCRASQSVRGRFLAWYQQKPGKAPKLLIYDASNRATGIPSRFSGSGSGTDFTLTISSLQPEDFATYYCQQSSSWPPTFGQGTKVEIKRTVAAPSVFIFPPSDEQLKSGTASVVCLLNNFYPREAKVQWKVDNALQSGNSQESVTEQDSKDSTYSLSSTLTLSKADYEKHKVYACEVTHQGLSSPVTKSFNRGEC
On to B15, for which the EC50 in assay [1] amounted to 996 nM.

B16: TY24464 (antibody, human IgG1, kappa)
heavy: not shown
light: B15 light with R21G
Take B16: the EC50 in assay [1] came to 2140 nM.
